Experimental data as given in patent publication US20060063149A1 (BIOKIT S A, published 2006).

Experiments:
Tp17-HIS monomers = molecular target: T1, Tp17-HIS monomers (Treponema pallidum, UniProt P29722 23-156); assay: size-exclusion chromatography of complexes formed in vitro
T1 construct: also called monomeric Tp17-His; not shown: HIS tag from the pET24a vector
T1 sequence: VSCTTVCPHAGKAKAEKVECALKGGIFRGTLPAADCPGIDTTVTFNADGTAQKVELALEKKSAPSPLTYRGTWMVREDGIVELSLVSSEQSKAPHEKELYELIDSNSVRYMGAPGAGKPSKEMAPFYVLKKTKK

Tp17-HIS dimers = molecular target: T2, Tp17-HIS dimers (Treponema pallidum, UniProt P29722 23-156); assay: as above
T2 construct: also called dimeric Tp17-His; not shown: HIS tag from the pET24a vector
T2 sequence: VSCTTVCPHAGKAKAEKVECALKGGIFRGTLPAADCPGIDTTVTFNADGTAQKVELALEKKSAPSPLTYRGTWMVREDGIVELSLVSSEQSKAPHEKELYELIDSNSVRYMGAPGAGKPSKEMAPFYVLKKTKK

GST-Tp47 fusion protein = molecular target: T3, GST-Tp47 fusion protein (Treponema pallidum, UniProt P29723 20-434); assay: Far Western blot, lysozyme on PVDF membrane
T3 construct: Control protein that shares the GST moiety with GST-Tp17; also called control GST-Tp47 antigen; not shown: GST moiety
T3 sequence: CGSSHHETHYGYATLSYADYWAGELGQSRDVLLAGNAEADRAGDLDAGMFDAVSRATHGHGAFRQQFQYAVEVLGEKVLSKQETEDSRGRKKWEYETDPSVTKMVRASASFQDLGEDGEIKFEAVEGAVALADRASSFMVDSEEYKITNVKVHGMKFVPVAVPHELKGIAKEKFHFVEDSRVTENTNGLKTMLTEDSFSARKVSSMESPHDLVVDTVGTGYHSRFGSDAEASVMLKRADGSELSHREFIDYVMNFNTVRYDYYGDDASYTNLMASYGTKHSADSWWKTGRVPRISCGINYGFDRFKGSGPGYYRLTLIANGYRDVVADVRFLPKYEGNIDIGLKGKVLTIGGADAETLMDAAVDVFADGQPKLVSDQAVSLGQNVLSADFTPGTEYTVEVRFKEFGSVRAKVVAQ

B1: recombinant human lysozyme (Ventria Bioscience) (enzyme)
chain: KVFERCELARTLKRLGMDGYRGISLANWMCLAKWESGYNTRATNYNAGDRSTDYGIFQINSRYWCNDGKTPGAVNACHLSCSALLQDNIADAVACAKRVVRDPQGIRAWVAWRNRCQNRDVRQYVQGCGV
notes: Bought product (159-53LZ-90P); also called huLYS; LyzR
B1: binds (Tp17-HIS monomers); binds (Tp17-HIS dimers).

B2: human breast milk lysozyme (enzyme)
chain: KVFERCELARTLKRLGMDGYRGISLANWMCLAKWESGYNTRATNYNAGDRSTDYGIFQINSRYWCNDGKTPGAVNACHLSCSALLQDNIADAVACAKRVVRDPQGIRAWVAWRNRCQNRDVRQYVQGCGV
notes: also called human lysozyme; huLYS
B2: no binding (GST-Tp47 fusion protein).
